Kd data for ten molecules are collected here from publication PMC5048595.

To fix the notation:
T1: hPolη (human DNA polymerase eta) (Homo sapiens, UniProt Q9Y253 1-713)
T1 sequence: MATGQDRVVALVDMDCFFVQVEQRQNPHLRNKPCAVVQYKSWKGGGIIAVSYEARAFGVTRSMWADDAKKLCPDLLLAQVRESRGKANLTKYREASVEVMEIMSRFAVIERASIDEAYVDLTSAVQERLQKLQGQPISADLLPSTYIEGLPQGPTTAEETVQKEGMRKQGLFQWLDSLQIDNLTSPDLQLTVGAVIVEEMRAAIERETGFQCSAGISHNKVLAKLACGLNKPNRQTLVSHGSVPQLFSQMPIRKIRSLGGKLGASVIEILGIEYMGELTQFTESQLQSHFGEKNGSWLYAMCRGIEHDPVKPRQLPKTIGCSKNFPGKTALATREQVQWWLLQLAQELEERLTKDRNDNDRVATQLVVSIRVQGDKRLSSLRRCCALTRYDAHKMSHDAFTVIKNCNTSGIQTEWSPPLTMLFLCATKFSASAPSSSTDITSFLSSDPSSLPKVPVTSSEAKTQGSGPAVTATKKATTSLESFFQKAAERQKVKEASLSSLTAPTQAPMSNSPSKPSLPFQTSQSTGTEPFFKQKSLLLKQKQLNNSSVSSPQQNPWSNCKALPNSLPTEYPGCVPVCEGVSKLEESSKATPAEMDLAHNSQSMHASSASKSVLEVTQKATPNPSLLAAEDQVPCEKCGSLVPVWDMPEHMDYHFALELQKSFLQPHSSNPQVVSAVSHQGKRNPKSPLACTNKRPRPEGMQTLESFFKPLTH

B1: 18/26-mer (dsDNA)
DNA 1: AACGACGGCCAGTGAATT
DNA 2: CCCGCGCGAATTCACTGGCCGTCGTT
B2: 18/26-mer-dGC8-N-ABA (dsDNA)
DNA 1: AACGACGGCCAGTGAATT
DNA 2: CCCGCGCGAATTCACTGGCCGTCGTT
modifications: template dG at position 21 from 3' end (6 from 5' end) is N-(2'-deoxyguanosin-8-yl)-3-aminobenzanthrone
B3: 19/26-mer (dsDNA)
DNA 1: AACGACGGCCAGTGAATTC
DNA 2: CCCGCGCGAATTCACTGGCCGTCGTT
B4: 20/26-mer-dGC8-N-ABA (dsDNA)
DNA 1: AACGACGGCCAGTGAATTCG
DNA 2: CCCGCGCGAATTCACTGGCCGTCGTT
modifications: template dG at position 21 from 3' end (6 from 5' end) is N-(2'-deoxyguanosin-8-yl)-3-aminobenzanthrone
B5: 20/26-mer (dsDNA)
DNA 1: AACGACGGCCAGTGAATTCG
DNA 2: CCCGCGCGAATTCACTGGCCGTCGTT
B6: 19/26-mer-dGC8-N-ABA (dsDNA)
DNA 1: AACGACGGCCAGTGAATTC
DNA 2: CCCGCGCGAATTCACTGGCCGTCGTT
modifications: template dG at position 21 from 3' end (6 from 5' end) is N-(2'-deoxyguanosin-8-yl)-3-aminobenzanthrone
B7: 21/26-mer-dGC8-N-ABA (dsDNA)
DNA 1: AACGACGGCCAGTGAATTCGC
DNA 2: CCCGCGCGAATTCACTGGCCGTCGTT
modifications: template dG at position 21 from 3' end (6 from 5' end) is N-(2'-deoxyguanosin-8-yl)-3-aminobenzanthrone
B8: 22/26-mer-dGC8-N-ABA (dsDNA)
DNA 1: AACGACGGCCAGTGAATTCGCG
DNA 2: CCCGCGCGAATTCACTGGCCGTCGTT
modifications: template dG at position 21 from 3' end (6 from 5' end) is N-(2'-deoxyguanosin-8-yl)-3-aminobenzanthrone
B9: 22/26-mer (dsDNA)
DNA 1: AACGACGGCCAGTGAATTCGCG
DNA 2: CCCGCGCGAATTCACTGGCCGTCGTT
B10: 21/26-mer (dsDNA)
DNA 1: AACGACGGCCAGTGAATTCGC
DNA 2: CCCGCGCGAATTCACTGGCCGTCGTT

This data set concerns the target T1, hPolη (human DNA polymerase eta). As to the kind of experiment: EMSA. Background: A gel shift assay detects complexes by their altered migration in electrophoresis.
By Kd is commonly meant the concentration at which binding is half-saturated. Read a low Kd as a tighter complex. B1 returned a Kd of 28 ± 3 nM.
As to B2, the affinity, expressed as Kd, was 32 ± 5 nM.
Consider B3, for which the equilibrium dissociation constant (Kd) amounted to 25 ± 5 nM.
The value for B4 was 12 ± 2 nM.
With B5 the figure was 23 ± 2 nM; with B6, 12 ± 2 nM; with B7, 26 ± 7 nM.
B8 yielded a dissociation constant Kd of 24 ± 4 nM.
B9 registered a Kd of 17 ± 6 nM.
With B10 the figure was 26 ± 1 nM.
